Experimental data taken from PMC2665219 (Nucleic Acids Research, 2009).
Where two headings read alike, the source gives them in different places.

T1: EbfC (Borrelia burgdorferi, UniProt O51418 1-99)
T1 sequence: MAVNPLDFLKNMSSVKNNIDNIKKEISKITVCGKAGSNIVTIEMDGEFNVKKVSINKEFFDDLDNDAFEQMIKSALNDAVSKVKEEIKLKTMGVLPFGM


Tests used:
EbfC [1] = biological target: T1, EbfC; experiment: EMSA
EbfC [2] = biological target: T1, EbfC; experiment: EMSA; remark: listed apart in the source
EbfC [3] = biological target: T1, EbfC; experiment: EMSA; remark: listed apart in the source
SEC = biological target: the molecule itself; experiment: SEC

| Binder | stoichiometry N (SEC) | other results |
| --- | --- | --- |
| b-C30 (dsDNA) DNA 1: TTGTAATGAGTAGTGCATTTGCAATGGAGAGATTTTGGGGAGTTGTTTAAAATTACATTTGCGTTTTGTTAAAACACAACAGCTGAATGTAACTAAATTATATATTTAAATCTTTGAAATATTGC DNA 2: GCAATATTTCAAAGATTTAAATATATAATTTAGTTACATTCAGCTGTTGTGTTTTAACAAAACGCAAATGTAATTTTAAACAACTCCCCAAAATCTCTCCATTGCAAATGCACTACTCATTACAA |  | binding result (EbfC [1]): binds |
| b-C20 (dsDNA) DNA 1: TTGTAATGAGTAGTGCATTTGCAATGGAGAGATTTTGGGGAGTTGTTTAAAATTACATTTGCGTTTTGTTAAAACACAACAGCTGAATGTAAAAAAATTATATATTTAAATCTTTGAAATATTGC DNA 2: GCAATATTTCAAAGATTTAAATATATAATTTTTTTACATTCAGCTGTTGTGTTTTAACAAAACGCAAATGTAATTTTAAACAACTCCCCAAAATCTCTCCATTGCAAATGCACTACTCATTACAA |  | binding result (EbfC [2]): no binding |
| b-C1/2+3 (dsDNA) DNA 1: TTGTAATGAGTAGTGCATTTGCAATGGAGAGATTTTGGGGAGTTGTTTAAAATTACATTTGCGTTTTGTTACAACACAACAGCTGAACACAACAAAATTATATATTTAAATCTTTGAAATATTGC DNA 2: GCAATATTTCAAAGATTTAAATATATAATTTTGTTGTGTTCAGCTGTTGTGTTGTAACAAAACGCAAATGTAATTTTAAACAACTCCCCAAAATCTCTCCATTGCAAATGCACTACTCATTACAA |  | binding result (EbfC [3]): binds |
| b-C40 (dsDNA) DNA 1: TTGTAATGAGTAGTGCATTTGCAATGGAGAGATTTTGGGGAGTTGTTTAAAATTACATTTGCGTTTTGTTAAAACACAACAGCTGAATGTGACAAAATTATATATTTAAATCTTTGAAATATTGC DNA 2: GCAATATTTCAAAGATTTAAATATATAATTTTGTCACATTCAGCTGTTGTGTTTTAACAAAACGCAAATGTAATTTTAAACAACTCCCCAAAATCTCTCCATTGCAAATGCACTACTCATTACAA |  | binding result (EbfC [1]): binds |
| b-C50 (dsDNA) DNA 1: TTGTAATGAGTAGTGCATTTGCAATGGAGAGATTTTGGGGAGTTGTTTAAAATTACATTTGCGTTTTGTTAAAACACAACAGCTGAATGTATCAAAATTATATATTTAAATCTTTGAAATATTGC DNA 2: GCAATATTTCAAAGATTTAAATATATAATTTTGATACATTCAGCTGTTGTGTTTTAACAAAACGCAAATGTAATTTTAAACAACTCCCCAAAATCTCTCCATTGCAAATGCACTACTCATTACAA |  | binding result (EbfC [2]): no binding |
| b-C2+3 (dsDNA) DNA 1: TTGTAATGAGTAGTGCATTTGCAATGGAGAGATTTTGGGGAGTTGTTTAAAATTACATTTGCGTTTTGTTACAACACAACAGCTGAATGTAACAAAATTATATATTTAAATCTTTGAAATATTGC DNA 2: GCAATATTTCAAAGATTTAAATATATAATTTTGTTACATTCAGCTGTTGTGTTGTAACAAAACGCAAATGTAATTTTAAACAACTCCCCAAAATCTCTCCATTGCAAATGCACTACTCATTACAA |  | binding result (EbfC [3]): binds |
| EbfC K16A mutant (natural protein, Borrelia burgdorferi strain B31, UniProt O51418 1-99, looked up) MAVNPLDFLKNMSSVANNIDNIKKEISKITVCGKAGSNIVTIEMDGEFNVKKVSINKEFFDDLDNDAFEQMIKSALNDAVSKVKEEIKLKTMGVLPFGM | 2 |  |
| EbfC K82A mutant (natural protein, Borrelia burgdorferi strain B31, UniProt O51418 1-99, looked up) MAVNPLDFLKNMSSVKNNIDNIKKEISKITVCGKAGSNIVTIEMDGEFNVKKVSINKEFFDDLDNDAFEQMIKSALNDAVSAVKEEIKLKTMGVLPFGM | 2 |  |
| EbfC D78A mutant (natural protein, Borrelia burgdorferi strain B31, UniProt O51418 1-99, looked up) MAVNPLDFLKNMSSVKNNIDNIKKEISKITVCGKAGSNIVTIEMDGEFNVKKVSINKEFFDDLDNDAFEQMIKSALNAAVSKVKEEIKLKTMGVLPFGM | 2 |  |
| EbfC D20A mutant (natural protein, Borrelia burgdorferi strain B31, UniProt O51418 1-99, looked up) MAVNPLDFLKNMSSVKNNIANIKKEISKITVCGKAGSNIVTIEMDGEFNVKKVSINKEFFDDLDNDAFEQMIKSALNDAVSKVKEEIKLKTMGVLPFGM | 2 |  |
| EbfC K88A mutant (natural protein, Borrelia burgdorferi strain B31, UniProt O51418 1-99, looked up) MAVNPLDFLKNMSSVKNNIDNIKKEISKITVCGKAGSNIVTIEMDGEFNVKKVSINKEFFDDLDNDAFEQMIKSALNDAVSKVKEEIALKTMGVLPFGM | 2 |  |
| EbfC K23A mutant (natural protein, Borrelia burgdorferi strain B31, UniProt O51418 1-99, looked up) MAVNPLDFLKNMSSVKNNIDNIAKEISKITVCGKAGSNIVTIEMDGEFNVKKVSINKEFFDDLDNDAFEQMIKSALNDAVSKVKEEIKLKTMGVLPFGM | 2 |  |
| EbfC K84A mutant (natural protein, Borrelia burgdorferi strain B31, UniProt O51418 1-99, looked up) MAVNPLDFLKNMSSVKNNIDNIKKEISKITVCGKAGSNIVTIEMDGEFNVKKVSINKEFFDDLDNDAFEQMIKSALNDAVSKVAEEIKLKTMGVLPFGM | 2 |  |
| EbfC E85A mutant (natural protein, Borrelia burgdorferi strain B31, UniProt O51418 1-99, looked up) MAVNPLDFLKNMSSVKNNIDNIKKEISKITVCGKAGSNIVTIEMDGEFNVKKVSINKEFFDDLDNDAFEQMIKSALNDAVSKVKAEIKLKTMGVLPFGM | 2 |  |
